Target: Pseudomonas aeruginosa type I-F CRISPR-Cas surveillance complex (Csy complex) (P. aeruginosa) (UniProt Q02MM1)
Test: SEC; competition: purified Csy complex pre-incubated 1 h with a 10-fold molar excess of FLAG-tagged AcrF1 (mutant or wild type), then an equal amount of HA-tagged wild-type AcrF1 added for 1 h; size exclusion chromatography; peak fractions by SDS-PAGE, silver staining and Western blot

Work on “FLAG-tagged AcrF1 E31A (natural protein)” yielded a percent exchanged with HA-tagged wild-type AcrF1 at 1 h of 50%.
With “FLAG-tagged AcrF1 Y20A (natural protein)” the percent exchanged with HA-tagged wild-type AcrF1 at 1 h was 50%.

From PMC5062604
